# US20210087291A1 (Hoffmann-La Roche, published 2021)
# T1: cynomolgus Tim3 (ELISA) (cynomolgus, UniProt A0A2K5U3G7 22-193)
# T1 construct: also called Biochem Cyno; cyno TIM3
# T1 sequence: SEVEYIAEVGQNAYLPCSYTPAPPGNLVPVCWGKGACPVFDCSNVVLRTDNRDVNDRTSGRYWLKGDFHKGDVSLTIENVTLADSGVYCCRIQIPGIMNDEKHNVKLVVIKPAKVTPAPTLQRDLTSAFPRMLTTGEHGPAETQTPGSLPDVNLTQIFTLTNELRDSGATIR
# What was measured:
# Tim3-ECD-His-Biotin [1] = target: T2, Tim3-ECD-His-Biotin (human, UniProt Q8TDQ0 22-202); assay: ELISA, human Tim3
# T2 construct: also called human Tim3 (ELISA); Biochem Human
# Tim3-ECD-His-Biotin [2] = target: T2, Tim3-ECD-His-Biotin; assay: ELISA, human Tim3; EC50 relative to the sample's max value
# cynomolgus Tim3 (ELISA) [3] = target: T1, cynomolgus Tim3 (ELISA); assay: ELISA, cyno Tim3; EC50 relative to the sample's max value
# human TIM-3 on cells [4] = target: T3, human TIM-3 on cells (human, UniProt Q8TDQ0 22-301); assay: cell ELISA, CHO-Tim3
# T3 construct: also called CHO-Tim3; rec CHOK1 cells expressing huTIM-3
# human TIM-3 on cells [5] = target: T3, human TIM-3 on cells; assay: cell ELISA, CHO-Tim3; EC50 relative to the sample's max value
# cynomolgus Tim3 (ELISA) [6] = target: T1, cynomolgus Tim3 (ELISA); assay: ELISA, cyno Tim3
# [7] = target: T4, cynomolgus FolR1 ECD-AcTev-Fcknob-Avi tag + Fc hole, biotinylated monomeric Fc fusion (cynomolgus, UniProt P0DOX5 223-449 = IgG part); assay: SPR ProteOn, Fab analyte;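 note: recombinant antigens immobilized, purified Fab two-fold dilutions injected in parallel channels, 200 s association and 600 s dissociation, buffer-only channel as in-line reference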
# T4 construct: also called cyFolR1; cyno FolR1-Fc
# Procedure: (§1) Immobilization of antigens (ligand): Recombinant antigens were diluted with PBST (10 mM phosphate, 150 mM sodium chloride pH 7.4, 0.005% Tween 20) to 10 μg/ml, then injected at 30 μl/minute in vertical orientation.
# (§2) Injection of analytes: For ‘one-shot kinetics’ measurements, injection direction was changed to horizontal orientation, two-fold dilution series of purified Fab (varying concentration ranges) were injected simultaneously along separate channels 1-5, with association times of 200 s, and dissociation times of 600 s. Buffer (PBST) was injected along the sixth channel to provide an “in-line” blank for referencing. Association rate constants (kₒₙ) and dissociation rate constants (koff) were calculated using a simple one-to-one Langmuir binding model in ProteOn Manager v3.1 software by simultaneously fitting the association and dissociation sensorgrams. The equilibrium dissociation constant (KD) was calculated as the ratio koff/kₒₙ.
# [8] = target: T5, human FolR2 ECD-AcTev-Fcknob-Avi tag + Fc hole, biotinylated monomeric Fc fusion (human, UniProt P0DOX5 223-449 = IgG part); assay: SPR ProteOn, Fab analyte;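 note: recombinant antigens immobilized, purified Fab two-fold dilutions injected in parallel channels, 200 s association and 600 s dissociation, buffer-only channel as in-line reference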
# T5 construct: also called huFolR2; FolR2-Fc
# Procedure: as §1, §2
# [9] = target: T6, murine FolR1 ECD-AcTev-Fcknob-Avitag + Fc hole, biotinylated monomeric Fc fusion (murine, UniProt P0DOX5 223-449 = IgG part); assay: SPR ProteOn, Fab analyte
# T6 construct: also called muFolR1; murine FolR1-Fc
# Procedure: as §1, §2
# [10] = target: T7, human FolR1 ECD-AcTev-Fcknob-Avi tag + Fc hole, biotinylated monomeric Fc fusion (human, UniProt P0DOX5 223-449 = IgG part); assay: SPR ProteOn, Fab analyte;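 note: recombinant antigens immobilized, purified Fab two-fold dilutions injected in parallel channels, 200 s association and 600 s dissociation, buffer-only channel as in-line reference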
# T7 construct: also called huFolR1; huFolR1-Fc
# Procedure: as §1, §2
# [11] = target: T8, human FolR3 ECD-AcTev-Fcknob-Avi tag + Fc hole, biotinylated monomeric Fc fusion (human, UniProt P0DOX5 223-449 = IgG part); assay: SPR ProteOn, Fab analyte;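 note: recombinant antigens immobilized, purified Fab two-fold dilutions injected in parallel channels, 200 s association and 600 s dissociation, buffer-only channel as in-line reference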
# T8 construct: also called huFolR3; FolR3-Fc
# Procedure: as §1, §2
# [12] = target: T5, human FolR2 ECD-AcTev-Fcknob-Avi tag + …; assay: SPR, IgG single injection
# [13] = target: T6, murine FolR1 ECD-AcTev-Fcknob-Avitag + …; assay: SPR, IgG single injection
# [14] = target: human FolR2 on transiently transfected HEK cells (human, UniProt P14207 17-230); assay: flow cytometry on HEK cells transiently transfected with human FolR2, anti-human secondary antibody; concentration not given
# [15] = target: T8, human FolR3 ECD-AcTev-Fcknob-Avi tag + …; assay: SPR, IgG single injection
# [16] = target: T6, murine FolR1 ECD-AcTev-Fcknob-Avitag + …; assay: SPR ProteOn, Fab analyte; remark: listed apart in the source
# Procedure: Immobilization of antigens (ligand): Recombinant antigens were diluted with PBST (10 mM phosphate, 150 mM sodium chloride pH 7.4, 0.005% Tween 20) to 10 μg/ml, then injected at 30 μl/minute in vertical orientation. Injection of analytes: For ‘one-shot kinetics’ measurements, injection direction was changed to horizontal orientation, two-fold dilution series of purified Fab (varying concentration ranges) were injected simultaneously along separate channels 1-5, with association times of 150 or 200 s, and dissociation times of 200 or 600 s, respectively. Buffer (PBST) was injected along the sixth channel to provide an “in-line” blank for referencing. Association rate constants (kₒₙ) and dissociation rate constants (koff) were calculated using a simple one-to-one Langmuir binding model in ProteOn Manager v3.1 software by simultaneously fitting the association and dissociation sensorgrams. The equilibrium dissociation constant (KD) was calculated as the ratio koff/kₒₙ.
# Sequence of human FolR2 on transiently transfected HEK cells (P14207 17-230 limits assumed): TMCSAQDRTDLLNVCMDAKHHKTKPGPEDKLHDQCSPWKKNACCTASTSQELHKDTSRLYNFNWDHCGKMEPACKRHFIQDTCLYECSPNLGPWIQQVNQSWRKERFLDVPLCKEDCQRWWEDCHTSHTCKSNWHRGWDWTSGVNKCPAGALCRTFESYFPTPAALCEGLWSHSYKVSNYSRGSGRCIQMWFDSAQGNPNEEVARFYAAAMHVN
binder,measurement,setting,value
"aTim3 0018MutNQ (antibody, V domains shown, also called aT3m3 0018MutNQ) VH: QVTLKESGPGILQPSQTLSLTCSFSGFSLSTSGMSVGWIRQPSGKGLEWLAHIWLNDDVFFNPALKRRLTISKDTSNNQVFLQIASVVTADTATYYCVRANGYLYALDYWGQGISVTVSS VL: QIVLTQSPAIMSASPGQKVTITCSASSSVQYTQWYQQKLGSSPKLWIYDAFKLAPGVPARFSGSGTGTSYSLTISSMEAEDAASYFCHQWSSYPWTFGGGTKLEIK",inflexion point,Tim3-ECD-His-Biotin [1],10.8 ng/mL
same,EC50,Tim3-ECD-His-Biotin [2],12 ng/mL
same,EC50,cynomolgus Tim3 (ELISA) [3],13.2 ng/mL
same,inflexion point,human TIM-3 on cells [4],12.8 ng/mL
same,EC50,human TIM-3 on cells [5],13.4 ng/mL
same,inflexion point,cynomolgus Tim3 (ELISA) [6],10.8 ng/mL
"aTim3 0016 MutNQ (antibody, V domains shown) VH: QVTLKESGPGILQPSQTLRLTCSFSGFSLSTSGMSVGWIRQPSGKGLEWLAHIWLNDDVFFNPALKSRLTISKDTSNNQVFLQIASVVTADTATYYCVRANGYLYALDYWGQGTSVTVSS VL: QIVLTQSPAIMSASPGQKVTITCSASSSVQYTQWYQQKLGSSPKLWIYDAFKLAPGVPARFSGSGTGTSYSLTISSMEAEDAASYFCHQWSSYPWTFGGGTKLEIK",inflexion point,Tim3-ECD-His-Biotin [1],5.7 ng/mL
same,EC50,Tim3-ECD-His-Biotin [2],7.6 ng/mL
same,EC50,cynomolgus Tim3 (ELISA) [3],8.3 ng/mL
same,inflexion point,human TIM-3 on cells [4],5.4 ng/mL
same,EC50,human TIM-3 on cells [5],6.8 ng/mL
same,inflexion point,cynomolgus Tim3 (ELISA) [6],5.7 ng/mL
"aTim3 0016MutNS (antibody, V domains shown) VH: QVTLKESGPGILQPSQTLRLTCSFSGFSLSTSGMSVGWIRQPSGKGLEWLAHIWLNDDVFFNPALKSRLTISKDTSNNQVFLQIASVVTADTATYYCVRANGYLYALDYWGQGTSVTVSS VL: QIVLTQSPAIMSASPGQKVTITCSASSSVSYTQWYQQKLGSSPKLWIYDAFKLAPGVPARFSGSGTGTSYSLTISSMEAEDAASYFCHQWSSYPWTFGGGTKLEIK",inflexion point,Tim3-ECD-His-Biotin [1],6.5 ng/mL
same,EC50,Tim3-ECD-His-Biotin [2],8.5 ng/mL
same,EC50,cynomolgus Tim3 (ELISA) [3],9.7 ng/mL
same,inflexion point,human TIM-3 on cells [4],8.5 ng/mL
same,EC50,human TIM-3 on cells [5],9.1 ng/mL
same,inflexion point,cynomolgus Tim3 (ELISA) [6],5.5 ng/mL
"aTim3 0018MutNS (antibody, V domains shown, also called aT3m3 0018MutNS) VH: QVTLKESGPGILQPSQTLSLTCSFSGFSLSTSGMSVGWIRQPSGKGLEWLAHIWLNDDVFFNPALKRRLTISKDTSNNQVFLQIASVVTADTATYYCVRANGYLYALDYWGQGISVTVSS VL: QIVLTQSPAIMSASPGQKVTITCSASSSVSYTQWYQQKLGSSPKLWIYDAFKLAPGVPARFSGSGTGTSYSLTISSMEAEDAASYFCHQWSSYPWTFGGGTKLEIK",inflexion point,Tim3-ECD-His-Biotin [1],6.5 ng/mL
same,EC50,Tim3-ECD-His-Biotin [2],10.3 ng/mL
same,EC50,cynomolgus Tim3 (ELISA) [3],11.9 ng/mL
same,inflexion point,human TIM-3 on cells [4],11.1 ng/mL
same,EC50,human TIM-3 on cells [5],11.2 ng/mL
same,inflexion point,cynomolgus Tim3 (ELISA) [6],6.5 ng/mL
"15B6 Fab (Fab, V domains shown) VH: QVQLVQSGAEVKKPGASVKVSCKASGYTFTSYYMHWVRQAPGQGLEWMGIINPSGGSTSYAQKFQGRVTMTRDTSTSTVYMELSSLRSEDTAVYYCARNYYIGIVPFDYWGQGTLVTVSS VL: QAVVTQEPSLTVSPGGTVTLTCGSSTGAVTTSNYANWVQEKPGQAFRGLIGGTNKRAPGTPARFSGSLLGGKAALTLSGAQPEDEAEYYCALWYSNLWVFGGGTKLTVL",Kd,[7],13.9 nM
same,binding result,[8],no binding
same,binding result,[9],no binding
same,Kd,[10],19.1 nM
same,binding result,[11],no binding
"21A5 Fab (Fab, V domains shown) VH: not shown VL: QAVVTQEPSLTVSPGGTVTLTCGSSTGAVTTSNYANWVQEKPGQAFRGLIGGTNKRAPGTPARFSGSLLGGKAALTLSGAQPEDEAEYYCALWYSNLWVFGGGTKLTVL",binding result,[8],no binding
same,binding result,[9],no binding
"21A5 IgG (antibody, V domains shown, human IgG1) VH: not shown VL: QAVVTQEPSLTVSPGGTVTLTCGSSTGAVTTSNYANWVQEKPGQAFRGLIGGTNKRAPGTPARFSGSLLGGKAALTLSGAQPEDEAEYYCALWYSNLWVFGGGTKLTVL",binding result,[12],no binding (tested: 500 nM)
same,binding result,[13],no binding (tested: 500 nM)
same,binding result,[14],no binding
"16F12 Fab (Fab, V domains shown) VH: QVQLVQSGAEVKKPGASVKVSCKASGYTFTSYYMHWVRQAPGQGLEWMGIINPSGGSTSYAQKFQGRVTMTRDTSTSTVYMELSSLRSEDTAVYYCARNFTVLRVPFDYWGQGTLVTVSS VL: QAVVTQEPSLTVSPGGTVTLTCGSSTGAVTTSNYANWVQEKPGQAFRGLIGGTNKRAPGTPARFSGSLLGGKAALTLSGAQPEDEAEYYCALWYSNLWVFGGGTKLTVL",Kd,[7],90.9 nM
same,binding result,[8],no binding
same,binding result,[9],no binding
same,Kd,[10],68 nM
same,binding result,[11],no binding
"16D5 Fab (Fab, V domains shown) VH: not shown VL: QAVVTQEPSLTVSPGGTVTLTCGSSTGAVTTSNYANWVQEKPGQAFRGLIGGTNKRAPGTPARFSGSLLGGKAALTLSGAQPEDEAEYYCALWYSNLWVFGGGTKLTVL",binding result,[8],no binding
same,binding result,[9],no binding
same,binding result,[11],no binding
"16D5 IgG (antibody, V domains shown, human IgG1) VH: not shown VL: QAVVTQEPSLTVSPGGTVTLTCGSSTGAVTTSNYANWVQEKPGQAFRGLIGGTNKRAPGTPARFSGSLLGGKAALTLSGAQPEDEAEYYCALWYSNLWVFGGGTKLTVL",binding result,[12],no binding (tested: 500 nM)
same,binding result,[13],no binding (tested: 500 nM)
same,binding result,[15],no binding (tested: 500 nM)
same,binding result,[14],no binding
"21G8 Fab (Fab, V domains shown) VH: not shown VL: QAVVTQEPSLTVSPGGTVTLTCGSSTGAVTTSNYANWVQEKPGQAFRGLIGGTNKRAPGTPARFSGSLLGGKAALTLSGAQPEDEAEYYCALWYSNLWVFGGGTKLTVL",binding result,[9],no binding
"21G8 IgG (antibody, V domains shown, human IgG1) VH: not shown VL: QAVVTQEPSLTVSPGGTVTLTCGSSTGAVTTSNYANWVQEKPGQAFRGLIGGTNKRAPGTPARFSGSLLGGKAALTLSGAQPEDEAEYYCALWYSNLWVFGGGTKLTVL",binding result,[13],no binding (tested: 500 nM)
same,binding result,[14],binds
"11F8 Fab (Fab, V domains shown) VH: QVQLVQSGAEVKKPGSSVKVSCKASGGTFSSYAISWVRQAPGQGLEWMGGIIPIFGTANYAQKFQGRVTITADKSTSTAYMELSSLRSEDTAVYYCARAVFYRAWYSFDYWGQGTTVTVSS VL: DIQMTQSPSTLSASVGDRVTITCRASQSISSWLAWYQQKPGKAPKLLIYDASSLESGVPSRFSGSGSGTEFTLTISSLQPDDFATYYCQQYTSPPPTFGQGTKVEIK",Kd,[16],1200 nM
"5D9 Fab (Fab, V domains shown) VH: QVQLVQSGAEVKKPGASVKVSCKASGYTFTSYYMHWVRQAPGQGLEWMGIINPSGGSTSYAQKFQGRVTMTRDTSTSTVYMELSSLRSEDTAVYYCARSYIDMDYWGQGTLVTVSS VL: EIVLTQSPGTLSLSPGERATLSCRASQSVSSSYLAWYQQKPGQAPRLLIYGASSRATGIPDRFSGSGSGTDFTLTISRLEPEDFAVYYCQQDNWSPTFGQGTKVEIK",binding result,[16],no binding
"6B6 Fab (Fab, V domains shown) VH: QVQLVQSGAEVKKPGASVKVSCKASGYTFTSYYMHWVRQAPGQGLEWMGIINPSGGSTSYAQKFQGRVTMTRDTSTSTVYMELSSLRSEDTAVYYCARSYVDMDYWGQGTLVTVSS VL: EIVLTQSPGTLSLSPGERATLSCRASQSVSSSYLAWYQQKPGQAPRLLIYGASSRATGIPDRFSGSGSGTDFTLTISRLEPEDFAVYYCQQDIWSPTFGQGTKVEIK",binding result,[16],no binding
